# Starred links: 1 amine or outer side, 2 acyl side, 3 side chain; linkers in the order of their positions; H or OH if unused. Non-standard residues stand in square brackets, D forms with d. No end group written: not given here. *: point of attachment. AMCB = 2-amino-5-(4-chloro-2-methylphenyl)pentanoic acid, Cc1cc(Cl)ccc1CCC[C@H](N[*:1])C(=O)[*:2]; 2CF3,4F‑APPA = 2-amino-5-(4-fluoro-2-(trifluoromethyl)phenyl)pentanoic acid; 2CF3‑APPA = 2-amino-5-(2-(trifluoromethyl)phenyl)pentanoic acid; Bip(2'-Et-4'-OMe) = CCc1cc(OC)ccc1-c1ccc(C[C@H](N)C(=O)O)cc1; Leu(5,5,5,5',5',5'-F6) = N[C@@H](CC(C(F)(F)F)C(F)(F)F)C(=O)O; Nva(5-(3,5-Me2Ph)) = Cc1cc(C)cc(CCC[C@H](N)C(=O)O)c1; 2F‑APPA = 2-amino-5-(2-fluorophenyl)pentanoic acid; αMePhe(2-F) = C[C@](N)(Cc1ccccc1F)C(=O)O; hhPhe = N[C@@H](CCCc1ccccc1)C(=O)O; aThr = C[C@H](O)[C@H](N)C(=O)O; CNB = not defined here; Ac3c = NC1(C(=O)O)CC1; Aib = CC(C)(N)C(=O)O; Moc = COC(=O)*
# Tests used:
# Assay in all cases: cell-based or functional assay
# human glucagon receptor = human glucagon receptor (human, UniProt P47871 26-477)
# human GLP-1 receptor [1] = biological target: T1, human GLP-1 receptor (human, UniProt P43220 24-463)
# T1 sequence (P43220 24-463): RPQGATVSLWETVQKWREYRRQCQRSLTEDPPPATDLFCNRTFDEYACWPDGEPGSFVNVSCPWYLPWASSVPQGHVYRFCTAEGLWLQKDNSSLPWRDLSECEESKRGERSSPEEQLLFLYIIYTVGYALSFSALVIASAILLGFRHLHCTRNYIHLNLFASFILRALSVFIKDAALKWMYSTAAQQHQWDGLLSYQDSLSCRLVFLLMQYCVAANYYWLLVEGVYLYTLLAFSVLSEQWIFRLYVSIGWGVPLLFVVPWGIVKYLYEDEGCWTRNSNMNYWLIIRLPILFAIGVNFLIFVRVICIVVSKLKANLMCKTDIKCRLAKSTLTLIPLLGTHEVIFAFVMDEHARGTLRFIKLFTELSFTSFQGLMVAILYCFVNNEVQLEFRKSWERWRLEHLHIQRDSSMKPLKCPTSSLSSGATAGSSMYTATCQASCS
# human GLP-1 receptor [2] = biological target: T1, human GLP-1 receptor; remark: listed apart in the source
"inhibition of cAMP production, 1 nM (human glucagon receptor)","inhibition of cAMP production, 10 nM (human glucagon receptor)","inhibition of cAMP production, 100 nM (human glucagon receptor)","inhibition of cAMP production, 1 µM (human glucagon receptor)","inhibition of cAMP production, 10 µM (human glucagon receptor)","cAMP release, % activity, 1 nM (human GLP-1 receptor [1])","cAMP release, % activity, 10 nM (human GLP-1 receptor [1])","cAMP release, % activity, 100 nM (human GLP-1 receptor [1])","cAMP release, % activity, 1 µM (human GLP-1 receptor [1])","cAMP release, % activity, 10 µM (human GLP-1 receptor [1])","EC50, cAMP, H GLP-1 R assay (human GLP-1 receptor [2])",Binder
6 pmol/ml/µg prt,5 pmol/ml/µg prt,2 pmol/ml/µg prt,0 pmol/ml/µg prt,0 pmol/ml/µg prt,96%,99%,99%,99%,99%,–,H[Aib][CNB]G[aThr][αMePhe(2-F)][aThr]SD[Bip(2'-Et-4'-OMe)][2F‑APPA] (reading uncertain; also: reduced (CH2) bonds Z9-Z10 and Z10-Z11) [Seq. ID. No. 204: H-Aib-(CNB)-G-T(allo)-(α-Me-2F-Phe)-T(allo)-SD-(CH2)-Bip(OMe)-(CH2)-(2F-APPA)]
15 pmol/ml/µg prt,12 pmol/ml/µg prt,8 pmol/ml/µg prt,4 pmol/ml/µg prt,2 pmol/ml/µg prt,51%,86%,91%,99%,99%,–,HSQGTFTSD[Bip(2'-Et-4'-OMe)][2F‑APPA] [Seq. ID. No. 45: HSQGTFTSD-Bip(OMe)-(2F-APPA)]
20 pmol/ml/µg prt,18 pmol/ml/µg prt,16 pmol/ml/µg prt,14 pmol/ml/µg prt,12 pmol/ml/µg prt,96%,99%,99%,99%,99%,–,H[Aib][CNB]GTFTSD[Bip(2'-Et-4'-OMe)][hhPhe] (reading uncertain) [Seq. ID. No. 29: H-Aib-(CNB)-GTFTSD-Bip(OMe)-(APPA)]
–,–,–,–,–,–,–,–,–,–,0.34 nM,"H[Aib]QGT[αMePhe(2-F)]TSD[Bip(2'-Et-4'-OMe)][Nva(5-(3,5-Me2Ph))] [Seq. ID. No. 38: H-Aib-QGT-(α-Me-2F-Phe)-TSD-Bip(OMe)-(ADMP)]"
21 pmol/ml/µg prt,19 pmol/ml/µg prt,18 pmol/ml/µg prt,18 pmol/ml/µg prt,16 pmol/ml/µg prt,96%,99%,99%,99%,99%,–,"H[Aib][Leu(5,5,5,5',5',5'-F6)]GT[αMePhe(2-F)]TSD[Bip(2'-Et-4'-OMe)][AMCB] [Seq. ID. No. 237: H-Aib-(Hfl)-GT-(α-Me-2F-Phe)-TSD-Bip(OMe)-(AMCB)]"
19 pmol/ml/µg prt,17 pmol/ml/µg prt,15 pmol/ml/µg prt,14 pmol/ml/µg prt,12 pmol/ml/µg prt,99%,99%,99%,99%,99%,–,"H[Aib][Leu(5,5,5,5',5',5'-F6)]G[aThr][αMePhe(2-F)][aThr]SD[Bip(2'-Et-4'-OMe)][hhPhe] [Seq. ID. No. 228: H-Aib-(Hfl)-G-T(allo)-(α-Me-2F-Phe)-T(allo)-SD-Bip(OMe)-(APPA)]"
9 pmol/ml/µg prt,6 pmol/ml/µg prt,5 pmol/ml/µg prt,3 pmol/ml/µg prt,0 pmol/ml/µg prt,45%,84%,90%,99%,99%,–,"H[Ac3c]QGTFTSD[Bip(2'-Et-4'-OMe)][2CF3,4F‑APPA] [Seq. ID. No. 72: H-(ACP)-QGTFTSD-Bip(OMe)-(2CF3,4F-APPA)]"
4 pmol/ml/µg prt,2 pmol/ml/µg prt,0 pmol/ml/µg prt,0 pmol/ml/µg prt,0 pmol/ml/µg prt,96%,99%,99%,99%,99%,–,Ac-H[Aib][CNB]GT[αMePhe(2-F)]TSD[Bip(2'-Et-4'-OMe)][hhPhe] (reading uncertain) [Seq. ID. No. 205: CH3CO-H-Aib-(CNB)-GT-(α-Me-2F-Phe)-TSD-Bip(OMe)-(APPA)]
0 pmol/ml/µg prt,0 pmol/ml/µg prt,0 pmol/ml/µg prt,0 pmol/ml/µg prt,0 pmol/ml/µg prt,39%,80%,86%,95%,98%,–,Moc-H[Aib][CNB]GT[αMePhe(2-F)]TSD[Bip(2'-Et-4'-OMe)][hhPhe] (reading uncertain) [Seq. ID. No. 206: CH3OCO-H-Aib-(CNB)-GT-(α-Me-2F-Phe)-TSD-Bip(OMe)-(APPA)]
17 pmol/ml/µg prt,15 pmol/ml/µg prt,12 pmol/ml/µg prt,8 pmol/ml/µg prt,6 pmol/ml/µg prt,99%,99%,99%,99%,99%,–,"H[Ac3c]QGTFTSD[Bip(2'-Et-4'-OMe)][Nva(5-(3,5-Me2Ph))] [Seq. ID. No. 22: H-(ACP)-QGTFTSD-Bip(OMe)-(ADMP)]"
20 pmol/ml/µg prt,18 pmol/ml/µg prt,16 pmol/ml/µg prt,14 pmol/ml/µg prt,12 pmol/ml/µg prt,40%,81%,87%,95%,98%,–,H[Aib][CNB]GTFTSD[Bip(2'-Et-4'-OMe)][2F‑APPA] (reading uncertain) [Seq. ID. No. 77: H-Aib-(CNB)-GTFTSD-Bip(OMe)-(2F-APPA)]
22 pmol/ml/µg prt,21 pmol/ml/µg prt,20 pmol/ml/µg prt,18 pmol/ml/µg prt,18 pmol/ml/µg prt,38%,78%,86%,95%,98%,–,"H[Aib][CNB]GTFTSD[Bip(2'-Et-4'-OMe)][Nva(5-(3,5-Me2Ph))] (reading uncertain) [Seq. ID. No. 30: H-Aib-(CNB)-GTFTSD-Bip(OMe)-(ADMP)]"
0 pmol/ml/µg prt,0 pmol/ml/µg prt,0 pmol/ml/µg prt,0 pmol/ml/µg prt,0 pmol/ml/µg prt,40%,81%,89%,96%,99%,–,Ac-H[Aib][CNB]GT[αMePhe(2-F)]TSD[Bip(2'-Et-4'-OMe)][2F‑APPA] (reading uncertain) [Seq. ID. No. 207: CH3CO-H-Aib-(CNB)-GT-(α-Me-2F-Phe)-TSD-Bip(OMe)-(2F-APPA)]
6 pmol/ml/µg prt,5 pmol/ml/µg prt,2 pmol/ml/µg prt,0 pmol/ml/µg prt,0 pmol/ml/µg prt,62%,94%,99%,99%,99%,–,H[Aib][CNB]GTFTSD[Bip(2'-Et-4'-OMe)][2CF3‑APPA] (reading uncertain) [Seq. ID. No. 79: H-Aib-(CNB)-GTFTSD-Bip(OMe)-(2CF3-APPA)]
18 pmol/ml/µg prt,16 pmol/ml/µg prt,12 pmol/ml/µg prt,8 pmol/ml/µg prt,6 pmol/ml/µg prt,38%,77%,85%,94%,97%,–,H[Aib]QGT[αMePhe(2-F)]TSD[Bip(2'-Et-4'-OMe)][AMCB] [Seq. ID. No. 40: H-Aib-QGT-(α-Me-2F-Phe)-TSD-Bip(OMe)-(AMCB)]

# — patent US20120021972A1 (CADILA HEALTHCARE, published 2012)
